This note sets out measurements from publication PMC7748142.

In the experiment the target is T1, peroxiredoxin 1 (PRDX1), murine lung fibroblasts (mouse (endogenous in MLFs)), P35700.
T1 chain: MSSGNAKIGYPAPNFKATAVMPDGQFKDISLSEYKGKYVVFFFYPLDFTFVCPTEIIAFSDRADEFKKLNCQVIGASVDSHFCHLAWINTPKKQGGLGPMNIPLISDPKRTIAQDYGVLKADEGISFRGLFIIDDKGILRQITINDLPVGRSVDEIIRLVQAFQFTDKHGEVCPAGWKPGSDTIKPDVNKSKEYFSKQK
The experiment is described as follows: non-reducing SDS-PAGE with Western blot; A549 or MLF cells treated with Auranofin (A549: 10 uM, MLF: 2 uM) alone or with KU55933 (10 uM, 1 h pre-treatment); lysed in CHAPS buffer with 100 mM NEM; boiled in non-reducing sample buffer; disulfide-linked dimers. Conditions: remark: other sources report otherwise.

For orientation: stoichiometry N means a count of units in the complex or per binding partner.

B1: peroxiredoxin 1 (PRDX1), murine lung fibroblasts, P35700 1-199 (enzyme)
chain: T1 chain
As to B1, the stoichiometry N was found to be 2.
